{"source": "patent US20190309044A1", "about": "“POLYPEPTIDES AND USES THEREOF AS A DRUG FOR TREATMENT OF AUTOIMMUNE DISORDERS” (Compugen Ltd., priority 2017, published 2019)", "type_in_all_cases": "in vivo, mouse", "key": {"total splenocytes": {"system": "total splenocytes", "test": "Ex vivo recall responses of splenocytes, HY bone marrow transplantation model", "method": "On week 8 post bone marrow cell transplantion, total splenocytes (5×10^5 cells/well) were cultured in the presence of medium alone (no stimulation), anti-CD3(1 ug/ml), DBY peptide (10 ug/ml), irradiated male splenocytes (5×10^5 cells/well), or irradiated female splenocytes (5×10^5 cells/well). The individual splenocyte samples were cultured separately in triplicate wells. For T cell proliferative response, the cultures were pulsed with 1 uCi of tritiated thymidine at 24 hours and harvested at 72 hours post culture initiation. The statistical analysis carried out on the data is one-way ANOVA followed by Dunnett's post test as compared to the mice receiving male CD45.1+ bone marrow cells plus Control Ig treatment, p-values *<0.05, **<0.01,***<0.001, and #<0.0001.\nOn week 8 post bone marrow cell transplant, total splenocytes (5×10^5 cells/well) were cultured in the presence of medium alone (no stimulation), anti-CD3 (1 ug/ml), DBY peptide (10 ug/ml), irradiated male splenocytes (5×10^5 cells/well), or irradiated female splenocytes (5×10^5 cells/well). The individual splenocyte samples were cultured separately in triplicate wells. For the cytokine cultures, the supernatants were collected at 72 hours post culture initiation and the level of secreted cytokine was determined via LiquiChip. […]\nThese same populations of cells were analyzed at week 8 within the spleen. […]"}, "SJL/J mice [1]": {"system": "SJL/J mice", "test": "BBB breakdown and inflammation by fluorescence molecular tomography, adoptive transfer R-EAE", "settings": "Day +30", "method": "Commercially available near infrared (NIR) imaging agents were used to perform tomographic imaging (PerkinElmer Inc., Boston, Mass.). AngioSense®750 was used as a vascular imaging agent, and Cat B® 680 FAST was used to detect regions of increased lysosomal cathepsin B activity. For the in vivo imaging, mice were injected intravenously with 4 nmol of NIR fluorescent agent 24 hrs prior to imaging, and imaged following the last treatment with Control Ig or C1ORF32 ECD-Fc (SEQ ID NO: 42) (Day +30 post-PLP139-151 blast cell transfer). At the time of imaging, mice were anesthetized by administration of sodium pentobarbital (50 mg/kg) and then imaged using the FMT 2500 fluorescence molecular tomography in vivo imaging system (PerkinElmer Inc., Boston, Mass.). […] Appropriate optical filters allowed the collection of both fluorescence and excitation datasets, and the multiple source-detector fluorescence projections were normalized to the paired collection of laser excitation data. […] The collected fluorescence data was reconstructed by FMT 2500 system software (TrueQuant, PerkinElmer Inc., Boston, Mass.) which compensates for the effects of tissue heterogeneity on light scattering, allowing for the quantification of fluorescence signal within multiple organ regions. […] All data was normalized to fluorescence detected in CFA/saline-immunized healthy control mice. […]"}, "SJL/J mice [2]": {"system": "SJL/J mice", "test": "PLP139-151/CFA R-EAE upon IL-10 or TGFb blockade, clinical score", "method": "SJL/J mice were purchased from Harlan and primed with PLP139-151/CFA per the standard protocol, as described in 21.1.2 Methods, above). At disease remission the mice were split into 6 different treatment groups (n=5) as follows:\nMice were treated with Control Ig (mouse IgG2a) or C1ORF32 ECD-Fc (SEQ ID NO:42) at 100 ug/dose, each via an i.p. injection. This was followed with a second i.p. injection on the same day of either anti-IL-10 (rat IgG1), rat IgG1 (control Ab), or anti-TGFβ (mouse IgG1) at 100 ug/dose, each. All treatments were given 3×/wk for 2 wks, beginning on day +20 (onset of disease remission) and until day +31 post disease induction. All mice were followed for disease scores until day 44 post disease induction. On day 44, mice were sacrificed and analyzed for total T cell and Treg cell numbers in spleen and CNS. […]\nMice were followed for disease and scored on a 0-5 scale per standard lab protocol as follows: 0, no abnormality; 1, limp tail; 2, limp tail and hind limb weakness; 3, hind limb paralysis; 4, hind limb paralysis and forelimb weakness; and 5, moribund. Dead mice were scored with a score of 5 on the day of death only, and were not further scored on the next days."}}}
{"molecule": "C1ORF32 ECD-Fc (SEQ ID NO:42): human-mouse fusion protein: human C1ORF32 ECD fused to mouse immunoglobulin Fc (SEQ ID NO:42) (protein, Fusion protein human C1ORF32-ECD fused to mouse IgG2a Fc) LQVTVPDKKKVAMLFQPTVLRCHFSTSSHQPAVVQWKFKSYCQDRMGESLGMSSTRAQSLSKRNLEWDPYLDCLDSRRTVRVVASKQGSTVTLGDFYRGREITIVHDADLQIGKLMWGDSGLYYCIITTPDDLEGKNEDSVELLVLGRTGLLADLLPSFAVEIMGSENLYFQGSGEPRGPTIKPCPPCKCPAPNLLGGPSVFIFPPKIKDVLMISLSPIVTCVVVDVSEDDPDVQISWFVNNVEVHTAQTQTHREDYNSTLRVVSALPIQHQDWMSGKEFKCKVNNKDLPAPIERTISKPKGSVRAPQVYVLPPPEEEMTKKQVTLTCMVTDFMPEDIYVEWTNNGKTELNYKNTEPVLDSDGSYFMYSKLRVEKKNWVERNSYSCSVVHEGLHNHHTTKSFSRTPGK", "values": [{"measurement": "IL-10 and IL-4", "setting": "total splenocytes; activation with irradiated male splenocytes", "value": "increased level"}, {"measurement": "IL-10 and IL-4 secretion", "setting": "total splenocytes; week 8 splenocytes, in response to male or female splenocytes", "value": "significantly increased"}, {"measurement": "monocyte/macrophage activity in the brain and spinal cord (lysosomal CathepsinB activity)", "setting": "SJL/J mice [1]; did not reach statistical significance", "value": "decreased monocyte/macrophage activity"}, {"measurement": "vascular leakage in the brain and spinal cord (AngioSense)", "setting": "SJL/J mice [1]; significantly reduced levels", "value": "decreased vascular leakage"}, {"measurement": "beneficial effect on disease", "setting": "SJL/J mice [2]; concomitant administration of anti-IL-10", "value": "abrogated the beneficial effect"}, {"measurement": "beneficial effect on disease", "setting": "SJL/J mice [2]; concomitant administration of anti-TGF", "value": "abrogated the beneficial effect"}]}
